From publication doi:10.1101/2021.07.08.451529v1

Key:
[1] = substrate: NC(=O)C1=CN([C@@H]2O[C@H](COP(=O)(O)OP(=O)(O)OC[C@H]3O[C@@H](n4cnc5c(N)ncnc54)[C@H](O)[C@@H]3O)[C@@H](O)[C@H]2O)C=CC1; assay: purified protein; details: 150 μM oxaloacetate, 0.1 M phosphate pH 7.5, 0.1 M KCl, 24 °C
[2] = substrate: O=C(O)CC(=O)C(=O)O; assay: purified protein; details: 100 μM NADH, 0.1 M phosphate pH 7.5, 0.1 M KCl, 24 °C

| Protein | Km [1] | Km [2] |
| --- | --- | --- |
| recombinant MDH-1 (Caenorhabditis elegans) (protein) MSAPLRVLVTGAAGQIGYSIVIRIADGTVFGKEQPVELVLLDVPQCSNILEGVVFELQDCALPTLFSVVAVTDEKSAFTGIDYAFLVGAMPRREGMERKDLLAANVKIFKSQGKALAEYAKPTTKVIVVGNPANTNAFIAAKYAAGKIPAKNFSAMTRLDHNRALAQLALKTGTTIGNVKNVIIWGNHSGTQFPDVTHATVNKNGTETDAYAAVGDNAFLQGPFIATVQKRGGVIIEKRKLSSAMSAAKAACDHIHDWHFGTKAGQFVSMAVPSDGSYGIPQGLIFSFPVTIEGGEWKIVQGLSFDDFAKGKIAATTKELEEERDDALKACDDANI | 61 ± 6 µM | 54 ± 4 µM |
| endogenous MDH-1 (Caenorhabditis elegans) (protein) MSAPLRVLVTGAAGQIGYSIVIRIADGTVFGKEQPVELVLLDVPQCSNILEGVVFELQDCALPTLFSVVAVTDEKSAFTGIDYAFLVGAMPRREGMERKDLLAANVKIFKSQGKALAEYAKPTTKVIVVGNPANTNAFIAAKYAAGKIPAKNFSAMTRLDHNRALAQLALKTGTTIGNVKNVIIWGNHSGTQFPDVTHATVNKNGTETDAYAAVGDNAFLQGPFIATVQKRGGVIIEKRKLSSAMSAAKAACDHIHDWHFGTKAGQFVSMAVPSDGSYGIPQGLIFSFPVTIEGGEWKIVQGLSFDDFAKGKIAATTKELEEERDDALKACDDANI |  | 50 ± 4 µM |
| recombinant MDH-2 (Caenorhabditis elegans) (protein) SQAPKVALLGAAGGIGQPLGLLLKQDPLVAHLALYDVVNTPGVAADLSHIDSNAKVTAHTGPKELYAAVENADVIVIPAGVPRKPGMTRDDLFNTNAGIVRDLAAVIAKASPKALIAIITNPVNSTVPIASEVLKKAGVYDPKRVFGVTTLDVVRSQAFVSELKGHDASKTVVPVVGGHAGITIIPLLSQVKPSTKFSEEEISKLTPRIQDAGTEVVNAKAGAGSATLSMALAGARFANALVRGIKGEKNVQCAYVASDAVKGVEYFSTPVELGPNGVEKILGVGKVSAYEQKLIDASVPELNKNIAKGVAFVKGN |  | 52 ± 4 µM |
| endogenous MDH-2 (Caenorhabditis elegans) (protein) SQAPKVALLGAAGGIGQPLGLLLKQDPLVAHLALYDVVNTPGVAADLSHIDSNAKVTAHTGPKELYAAVENADVIVIPAGVPRKPGMTRDDLFNTNAGIVRDLAAVIAKASPKALIAIITNPVNSTVPIASEVLKKAGVYDPKRVFGVTTLDVVRSQAFVSELKGHDASKTVVPVVGGHAGITIIPLLSQVKPSTKFSEEEISKLTPRIQDAGTEVVNAKAGAGSATLSMALAGARFANALVRGIKGEKNVQCAYVASDAVKGVEYFSTPVELGPNGVEKILGVGKVSAYEQKLIDASVPELNKNIAKGVAFVKGN |  | 42 ± 2 µM |
